This is an account of results in patent publication US20130310317A1 (Bristol-Myers Squibb, published 2013).

In general, IC50 refers to the concentration needed to halve the response being measured. By Kd is commonly meant the equilibrium constant for the complex coming apart. Lower therefore signals higher affinity. A word on the koff: it is the rate constant with which the complex falls apart. Read a high koff as a short-lived complex. The term kon denotes a measure of how fast the partners come together. High values mean faster complex formation, low ones slower complex formation. As usually defined, the EC50 (read off the curve) is the concentration that produces a half-maximal response.

Where two headings read alike, the source gives them in different places. Where only a bound is given, the exact number is not on record here.

The target of test [1] is T1, human IGF-IR on cells (human, UniProt P08069 31-1367). The experiment in a line: cell-based or functional assay.
Test [2] deals with T1, human IGF-IR on cells. The experiment in a line: displacement of [125I]-IGF-I from MCF-7 cells. Here is the method: (§1) Cells were subsequently lysed and radioactivity was quantitated.
(§2) The human breast adenocarcinoma MCF-7 (ATCC, Manassas, Va.) was plated in 24 well plates at a concentration of 50,000 cells per well in RPMI 1640 (Invitrogen, Carlsbad, Calif.) containing 10% fetal bovine serum (Hyclone, Logan, Utah). The following day, cells were washed in binding buffer consisting of RPMI 1640 containing 0.1% BSA (Sigma, St. Louis, Mo.), and then pre-incubated for 30 minutes on ice in 200 μL binding buffer containing IGF-IR competitor. […] The wells were then washed with ice cold PBS containing 0.1% BSA. Cells were lysed with 500 μL buffer consisting of 0.1% SDS+0.5 N NaOH. Radioactivity of the lysates was measured using a Wallac 1470 Gamma Counter (Perkin Elmer, Wellesley, Mass.), and the data were analyzed using SigmaPlot (Systat Software, Point Richmond, Calif.).

Test [3] has as its target T1, human IGF-IR on cells. The experiment in a line: displacement of 40 pM [125I]-IGF-I from MCF-7 cells, on ice, cell-bound CPM. Here is the method: as §1, §2
The target of test [4] is T2, IGF-IR-Fc (human, UniProt P08069 31-932).
T2 construct: range 1-932; Made in house by transient transfection, captured on Protein A on CM5 chips for kinetic analysis; also called human IGF-IR-Fc fusion protein; recombinant, immobilized IGF-IR (BIAcore); not shown: hinge and constant regions of human IgG1
The experiment in a line: SPR (BIAcore); IGF-IR-Fc captured on Protein A, clone in solution. Here is the method:
(§3) The binding kinetics of fibronectin-based scaffold proteins binding proteins to the target was measured using BIAcore 2000 or 3000 biosensors (Pharmacia Biosensor). A capture assay was developed utilizing an IGF-IR-Fc fusion. A similar reagent had been described by Forbes et al. (Forbes et al. 2002, European J. Biochemistry, 269, 961-968). The extracellular domain of human IGF-IR (aa 1-932) was cloned into a mammalian expression vector containing the hinge and constant regions of human IgG1. Transient transfection of the plasmid produced a fusion protein, IGF-IR-Fc which was subsequently purified by Protein A chromatography and captured on Protein A immobilized on Biasensor CM5 chips by amine coupling. The kinetic analysis involved the capture of IGF-IR-Fc on Protein A followed by injection of the fibronectin-based scaffold protein in solution and regeneration of the Protein A surface by glycine pH 2.0. Sensorgrams were obtained at each concentration and were evaluated using a program Biaevaluation, BIA Evaluation 2.0 (BIAcore), to determine the rate constants kₐ (kₒₙ) and kd (koff) The dissociation constant, KD was calculated from the ratio of rate constants koff/kₒₙ. Typically, a concentration series (2 uM to 0 uM) of purified fibronectin-based scaffold protein was evaluated for binding to protein A captured human IGF-IR-Fc fusion protein.
For orientation: In SPR one partner is held on a chip, and binding of the other changes the refractive index at the surface.

The target in test [5] is T3, recombinant human insulin receptor (human, UniProt P06213-2 28-944, limits assumed).
T3 construct: Amine-coupled to a CM5 chip (8300 RU); also called IR
As to the kind of experiment: SPR (BIAcore), IR amine-coupled to chip. As for the experimental part:
(§4) In brief, 60 ug/mL of IR diluted in acetate 4.5 was coupled/immobilized to a level of 8300 RU and 11.9 ug/mL of VEGF-R2-Fc diluted in acetate 5.0 was immobilized to a level of 9700 RU on flow cells 2 and 3. A blank reference surface was prepared on FC 1. […] Fibronectin-based scaffold proteins were diluted to 10 uM in HBS-EP (10 mM Hepes 150 mM NaCl 3 mM EDTA 0.05% Surfactant P20) and injected at 20 uL/min for 3 minutes over the flow cells at 25 C and dissociation was observed over 10 mins.

Test [6] deals with T4, recombinant human IGF-IR (human, UniProt P08069 31-932).
T4 construct: Bought (R&D Systems); also called insulin-like growth factor-I receptor; IGF-1R
As to the kind of experiment: competitive ELISA, coated IGF-IR, biotinylated IGF-I as competitor. Here is the method: (§5) MaxiSorp™ plates (Nunc International, Rochester, N.Y.) were coated with 30 nM IGF-IR in PBS at 4° C. overnight followed by blocking in OptEIA buffer (BD biosciences, San Diego, Calif.) for 3 hours at room temperature. Purified fibronectin-based scaffold proteins in OptEIA buffer were bound to each well for 1 hour at room temperature at concentrations ranging from 50 pM to 1 μM. […] The excess ligand was removed by washing with PBST and bound ligand was detected with streptavidin-HRP (Pierce, Rockford, Ill.) using TMB detection reagents (BD biosciences) according to the manufacturer's instructions

Test [7] deals with T2, IGF-IR-Fc. The experiment in a line: SPR (BIAcore); IGF-IR-Fc captured on Protein A, clone in solution. Here is the method:
One liter E. coli growths of selected optimized clones were prepared and the proteins were purified. Surface plasmon resonance (BIAcore) analysis was performed using recombinant, immobilized IGF-IR and solution-phase clones in order to determine binding kinetics and binding affinities.
as §3
The source holds these as a separate data set.

Test [8] has as its target T3, recombinant human insulin receptor. The experiment in a line: SPR (BIAcore); IR amine-coupled to chip, clone at 10 µM, signal as % of insulin signal. Here is the method: (§6) One liter E. coli growths of selected optimized clones were prepared and the proteins were purified.
as §4

Test [9] has as its target T4, recombinant human IGF-IR. The experiment in a line: direct binding ELISA: plate coated with 10 nM IGF-IR, His-tagged clone detected with His-HRP probe, TMB, OD450. Here is the method: MaxiSorp™ plates (Nunc International, Rochester, N.Y.) were coated with 10 nM IGF-IR in PBS at 4° C. overnight followed by blocking in PBS-casein buffer (Pierce) for 3 hours at room temperature. Purified fibronectin-based scaffold proteins in casein buffer were bound to each well for 1 hour at room temperature at a concentration of 5 nM. The plate was washed with PBST and 100 μl of a 1:4000 dilution of His-HRP probe (Pierce) was added to each well with incubation for 15 min at room temperature. The wells were washed 5 times with PBST and the bound HRP was detected with TMB detection reagents (BD biosciences) according to the manufacturer's instructions.
On the technique in general: An ELISA detects its analyte on a solid surface through an enzyme-linked reagent.

Test [10] concerns the target T4, recombinant human IGF-IR. The experiment in a line: competitive ELISA: plate coated with 30 nM IGF-IR, clone bound first, then 10 nM biotinylated IGF-I as the blocked ligand, streptavidin-HRP/TMB, OD450. As for the experimental part: as §5
In test [11] the target is T3, recombinant human insulin receptor. The experiment in a line: SPR (BIAcore), IR amine-coupled to chip. As for the experimental part: as §6, §4
This is another data set of the same source.

The target of test [12] is T2, IGF-IR-Fc. As to the kind of experiment: SPR (BIAcore); IGF-IR-Fc captured on Protein A, clone in solution. Here is the method:
BIAcore analysis was performed using recombinant, immobilized IGF-IR and solution-phase clones in order to determine binding kinetics and binding affinities.
as §3
This is another data set of the same source.

Test [13] concerns the target T2, IGF-IR-Fc. As to the kind of experiment: SPR (BIAcore); IGF-IR-Fc captured on Protein A, analyte in solution. As for the experimental part:
as §3

Test [14] has as its target T2, IGF-IR-Fc. The experiment in a line: SPR (BIAcore); immobilized IGF-IR, analyte in solution. As for the experimental part: as §3

With anti-IGF-IR monoclonal antibody MAB391, the IC50, serum mediated proliferation of NCI-H929 cells with human IGF-IR on cells [1] came out at 100 pM. In the test with human IGF-IR on cells [2], the IC50 was 5000 pM. Also, the IC50 (read off the curve) with human IGF-IR on cells [3] is 2000 pM.

B1: 218C04 (designed binder)
chain: VSDVPRDLEVVAATPTSLLISWSPYLRVARYYRITYGETGGNSPVQEFTVPSSARTATISGLKPGVDYTITVYAVTPSNIIGRHYGPISINYRTHHHHHH
notes: also called clone 218C04; pre-optimized clone
In the test with IGF-IR-Fc [4], B1 came in with a Kd of 1800 pM.

B2: 338A06 (designed binder)
chain: VSDVPRDLEVVAATPTSLLISWSARLKVARYYRITYGETGGNSPVQEFTVPKNVYTATISGLKPGVDYTITVYAVTKMRDYRPISINYRTHHHHHH
notes: Optimized derivative of 218C04; also called clone 338A06; parent clone 338A06
In the case of B2, in the test with human IGF-IR on cells [1], the “IC50, IGF-I-dependent proliferation of BxPC-3 cells (3H-thymidine)” value was 10000 to 20000 pM. Further, the binding result in test [5] was “no binding (tested: 10 µM)”. Also, the IC50 in the test with human IGF-IR on cells [2] was in the range of 1000 to 2000 pM. Besides, the IC50 in the test with recombinant human IGF-IR [6] is at most 1000 pM. For the same molecule, in the test with IGF-IR-Fc [7], the Kd worked out at 69 pM, the koff worked out at 0.00043 s⁻¹ and the kon is about 6.2e+06 M⁻¹ s⁻¹. The “% IR Binding at 10 µM” value in [8] worked out at 2%. Besides, the “IC50 (read off the curve)” value with human IGF-IR on cells [3] was about 1000 pM. Also, the “EC50 (read off the curve)” value with recombinant human IGF-IR [9] is about 2000 pM. For the same molecule, the “IC50 (read off the curve)” value with recombinant human IGF-IR [10] is about 700 pM.

B3: 353H09 (designed binder)
chain: VSDVPRDLEVVAATPTSLLISWSDKLKVQRYYRITYGETGGNSPVQEFTVPKHDRTATISGLKPGVDYTITVYAVTKMRDYRPISINYRTHHHHHH
notes: Optimized derivative of 218C04
In the case of B3, the binding result in test [11] is recorded as “no binding (tested: 10 µM)”. In the test with IGF-IR-Fc [7], binding was characterised by a dissociation constant (Kd) of 57 pM, the koff amounted to 0.00022 s⁻¹ and the kon was found to be 3.8e+06 M⁻¹ s⁻¹. For the same molecule, the “IC50 (read off the curve)” value with recombinant human IGF-IR [10] is about 1000 pM.

B4: 385A08 (designed binder)
chain: VSDVPRDLEVVAATPTSLLISWSARLKVARYYRITYGETGGNSPVQEFTVPKNVYTATISGLKPGVDYTITVYAVTRFRDYQPISINYRTHHHHHH
notes: FG loop optimized derivative of 338A06; also called clone 385A08; unmodified 385A08
For the molecule B4, the “IC50, serum mediated proliferation of NCI-H929 cells” value (“IC50, serum mediated proliferation” below) in the test with human IGF-IR on cells [1] was about 100 pM. The binding result in test [5] is “no binding (tested: 10 µM)”. In the test with IGF-IR-Fc [12], this molecule returned a Kd of 34 pM, a koff of 0.00019 s⁻¹ and a kon of 5.7e+06 M⁻¹ s⁻¹. Moreover, in the test with IGF-IR-Fc [13], the Kd is 23 pM, the koff was determined as 0.00016 s⁻¹ and the kon was determined as 6.9e+06 M⁻¹ s⁻¹.

B5: 385A08-PEG40 (designed binder)
chain: GVSDVPRDLEVVAATPTSLLISWSARLKVARYYRITYGETGGNSPVQEFTVPKNVYTATISGLKPGVDYTITVYAVTRFRDYQPISINYRTEIDKPCQ
modifications: Cys97 coupled by maleimide chemistry to a mono-functional branched 40 kDa PEG
Take B5: the “IC50, serum mediated proliferation” value in the test with human IGF-IR on cells [1] is about 1000 pM. The “fold change of on-rate (ka) relative to unmodified 385A08” value with IGF-IR-Fc [14] is about 10 fold slower. For the same molecule, in the test with IGF-IR-Fc [13], binding was put at a Kd of 355 pM, the koff was 0.00021 s⁻¹ and the kon worked out at 600000 M⁻¹ s⁻¹.

B6: 385A08-PEG20-385A08 (designed binder)
chain: GVSDVPRDLEVVAATPTSLLISWSARLKVARYYRITYGETGGNSPVQEFTVPKNVYTATISGLKPGVDYTITVYAVTRFRDYQPISINYRTEIDKPCQ
modifications: Cys97 coupled by maleimide chemistry to a linear 20 kDa bifunctional PEG that links the two chains
notes: Two copies of 385A08 with the C-terminal Cys extension, joined through PEG; also called PEG20-385A08-PEG20 variant
With B6, the “IC50, serum mediated proliferation” value with human IGF-IR on cells [1] is under 0.1 pM. Moreover, the “fold change of on-rate (ka) relative to unmodified 385A08” value in the test with IGF-IR-Fc [14] is about 2 fold faster. In the test with IGF-IR-Fc [13], this molecule yielded a Kd of 6 pM, a koff of 9e-05 s⁻¹ and a kon of 1.5e+07 M⁻¹ s⁻¹.
